This test addresses T1, mouse CD40 (mouse, UniProt P27512 20-193, limits assumed).
T1 construct: also called mCD40
T1 sequence (looked up): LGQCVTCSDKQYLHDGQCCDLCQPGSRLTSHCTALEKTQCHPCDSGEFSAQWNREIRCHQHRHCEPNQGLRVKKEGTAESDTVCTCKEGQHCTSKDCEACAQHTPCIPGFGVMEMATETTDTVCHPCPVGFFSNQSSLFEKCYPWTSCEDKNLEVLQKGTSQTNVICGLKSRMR
The test can be described thus: not described; the molecule was used as isotype control in mice.

B1: Fusion protein 1 (FP1), anti-MUC-1 × anti-CD40 bispecific binding protein (bispecific antibody, human IgG1, lambda, L234A L235A)
heavy: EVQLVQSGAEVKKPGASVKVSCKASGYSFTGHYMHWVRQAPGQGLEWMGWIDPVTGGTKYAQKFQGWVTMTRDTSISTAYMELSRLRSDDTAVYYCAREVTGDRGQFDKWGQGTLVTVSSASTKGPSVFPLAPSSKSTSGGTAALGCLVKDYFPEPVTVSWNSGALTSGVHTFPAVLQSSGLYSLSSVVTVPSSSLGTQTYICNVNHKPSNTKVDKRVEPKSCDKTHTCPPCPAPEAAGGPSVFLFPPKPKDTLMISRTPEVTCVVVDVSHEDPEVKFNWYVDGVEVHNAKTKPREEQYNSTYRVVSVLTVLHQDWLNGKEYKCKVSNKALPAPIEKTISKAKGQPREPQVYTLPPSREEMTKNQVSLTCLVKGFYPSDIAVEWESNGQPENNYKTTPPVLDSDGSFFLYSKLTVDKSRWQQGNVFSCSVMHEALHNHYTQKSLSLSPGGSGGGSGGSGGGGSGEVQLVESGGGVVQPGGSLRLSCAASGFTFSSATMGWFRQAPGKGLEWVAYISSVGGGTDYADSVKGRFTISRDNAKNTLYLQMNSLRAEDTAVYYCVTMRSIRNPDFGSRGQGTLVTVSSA
light: SYVLTQPPSVSVAPGKTARITCGGNNIGSKSVHWYQQKPGQAPVLVIYYGSNRPSGIPERFSGSNSGNTATLTISRVEAGDEADYYCQVWDSSSDWVFGGGTKLTVLGQPKAAPSVTLFPPSSEELQANKATLVCLISDFYPGAVTVAWKADSSPVKAGVETTTPSKQSNNKYAASSYLSLTPEQWKSHKSYSCQVTHEGSTVEKTVAPTECS
notes: Fully human anti-MUC-1 IgG1 with one anti-human CD40 VHH fused by a 15 aa GS linker to the C-terminus of each heavy chain; also called Anti MUC-1 × CD40; anti MUC-1 × hCD40 A02
For the molecule B1, the binding result was “no binding”.

For the origin of these results see EP4663659A1 (Merck Patent GmbH, dated 2025).
